{
  "source": "the supplement of paper PMC10567573",
  "parents": {"B1": {"name": "ZNF232 (parent)", "chain": "HSGEKPFICKECGKAYGWCSELIR"}},
  "data": [
    {"variants_of": "B1", "experiment": "protein stability index of a GFP-peptide fusion (GPS, HEK-293T) (PSI 1-6); higher = more stable", "conditions": "c terminus: a fixed tail appended", "values": [
      {"variant": "HSGEKPFICKECGKAYGWRSELIR", "note": "[C19R]", "protein stability index": 1.73},
      {"variant": "HSGEKPFICKECGKAYGWSSELIR", "note": "[C19S]", "protein stability index": 2.83},
      {"variant": "HSGEKPFICKECGKAYGWTSELIR", "note": "[C19T]", "protein stability index": 2.09},
      {"variant": "HSGEKPFICKECGKAYGWVSELIR", "note": "[C19V]", "protein stability index": 1.68},
      {"variant": "HSGEKPFICKECGKAYGWWSELIR", "note": "[C19W]", "protein stability index": 1.37},
      {"variant": "HSGEKPFICKECGKAYGWYSELIR", "note": "[C19Y]", "protein stability index": 1.54},
      {"variant": "HSGEKPFICKECGKAYGWCAELIR", "note": "[S20A]", "protein stability index": 2.34},
      {"variant": "HSGEKPFICKECGKAYGWCCELIR", "note": "[S20C]", "protein stability index": 2.96},
      {"variant": "HSGEKPFICKECGKAYGWCDELIR", "note": "[S20D]", "protein stability index": 1.72},
      {"variant": "HSGEKPFICKECGKAYGWCEELIR", "note": "[S20E]", "protein stability index": 2.07},
      {"variant": "HSGEKPFICKECGKAYGWCFELIR", "note": "[S20F]", "protein stability index": 2.11},
      {"variant": "HSGEKPFICKECGKAYGWCGELIR", "note": "[S20G]", "protein stability index": 1.96},
      {"variant": "HSGEKPFICKECGKAYGWCHELIR", "note": "[S20H]", "protein stability index": 2.33},
      {"variant": "HSGEKPFICKECGKAYGWCIELIR", "note": "[S20I]", "protein stability index": 2.17},
      {"variant": "HSGEKPFICKECGKAYGWCKELIR", "note": "[S20K]", "protein stability index": 2.2},
      {"variant": "HSGEKPFICKECGKAYGWCLELIR", "note": "[S20L]", "protein stability index": 1.39},
      {"variant": "HSGEKPFICKECGKAYGWCMELIR", "note": "[S20M]", "protein stability index": 1.75},
      {"variant": "HSGEKPFICKECGKAYGWCNELIR", "note": "[S20N]", "protein stability index": 2.1},
      {"variant": "HSGEKPFICKECGKAYGWCPELIR", "note": "[S20P]", "protein stability index": 1.87},
      {"variant": "HSGEKPFICKECGKAYGWCQELIR", "note": "[S20Q]", "protein stability index": 1.98},
      {"variant": "HSGEKPFICKECGKAYGWCRELIR", "note": "[S20R]", "protein stability index": 3.24},
      {"variant": "HSGEKPFICKECGKAYGWCTELIR", "note": "[S20T]", "protein stability index": 2.11},
      {"variant": "HSGEKPFICKECGKAYGWCVELIR", "note": "[S20V]", "protein stability index": 2},
      {"variant": "HSGEKPFICKECGKAYGWCWELIR", "note": "[S20W]", "protein stability index": 1.77},
      {"variant": "HSGEKPFICKECGKAYGWCYELIR", "note": "[S20Y]", "protein stability index": 1.7},
      {"variant": "HSGEKPFICKECGKAYGWCSALIR", "note": "[E21A]", "protein stability index": 2.27},
      {"variant": "HSGEKPFICKECGKAYGWCSCLIR", "note": "[E21C]", "protein stability index": 2.8},
      {"variant": "HSGEKPFICKECGKAYGWCSDLIR", "note": "[E21D]", "protein stability index": 1.86},
      {"variant": "HSGEKPFICKECGKAYGWCSFLIR", "note": "[E21F]", "protein stability index": 1.92},
      {"variant": "HSGEKPFICKECGKAYGWCSGLIR", "note": "[E21G]", "protein stability index": 2.18},
      {"variant": "HSGEKPFICKECGKAYGWCSHLIR", "note": "[E21H]", "protein stability index": 3.87},
      {"variant": "HSGEKPFICKECGKAYGWCSILIR", "note": "[E21I]", "protein stability index": 2.07},
      {"variant": "HSGEKPFICKECGKAYGWCSKLIR", "note": "[E21K]", "protein stability index": 2.26},
      {"variant": "HSGEKPFICKECGKAYGWCSLLIR", "note": "[E21L]", "protein stability index": 2.2},
      {"variant": "HSGEKPFICKECGKAYGWCSMLIR", "note": "[E21M]", "protein stability index": 2.07},
      {"variant": "HSGEKPFICKECGKAYGWCSNLIR", "note": "[E21N]", "protein stability index": 1.38},
      {"variant": "HSGEKPFICKECGKAYGWCSPLIR", "note": "[E21P]", "protein stability index": 2.5},
      {"variant": "HSGEKPFICKECGKAYGWCSQLIR", "note": "[E21Q]", "protein stability index": 2.31},
      {"variant": "HSGEKPFICKECGKAYGWCSRLIR", "note": "[E21R]", "protein stability index": 1.99},
      {"variant": "HSGEKPFICKECGKAYGWCSSLIR", "note": "[E21S]", "protein stability index": 1.21},
      {"variant": "HSGEKPFICKECGKAYGWCSTLIR", "note": "[E21T]", "protein stability index": 2.3},
      {"variant": "HSGEKPFICKECGKAYGWCSVLIR", "note": "[E21V]", "protein stability index": 2.84},
      {"variant": "HSGEKPFICKECGKAYGWCSWLIR", "note": "[E21W]", "protein stability index": 2.11},
      {"variant": "HSGEKPFICKECGKAYGWCSYLIR", "note": "[E21Y]", "protein stability index": 2.12},
      {"variant": "HSGEKPFICKECGKAYGWCSEAIR", "note": "[L22A]", "protein stability index": 2.24},
      {"variant": "HSGEKPFICKECGKAYGWCSECIR", "note": "[L22C]", "protein stability index": 4.76},
      {"variant": "HSGEKPFICKECGKAYGWCSEDIR", "note": "[L22D]", "protein stability index": 2.3},
      {"variant": "HSGEKPFICKECGKAYGWCSEEIR", "note": "[L22E]", "protein stability index": 2.11},
      {"variant": "HSGEKPFICKECGKAYGWCSEFIR", "note": "[L22F]", "protein stability index": 1.94},
      {"variant": "HSGEKPFICKECGKAYGWCSEGIR", "note": "[L22G]", "protein stability index": 2},
      {"variant": "HSGEKPFICKECGKAYGWCSEHIR", "note": "[L22H]", "protein stability index": 3.29},
      {"variant": "HSGEKPFICKECGKAYGWCSEIIR", "note": "[L22I]", "protein stability index": 1.73},
      {"variant": "HSGEKPFICKECGKAYGWCSEKIR", "note": "[L22K]", "protein stability index": 1.96},
      {"variant": "HSGEKPFICKECGKAYGWCSEMIR", "note": "[L22M]", "protein stability index": 2.08},
      {"variant": "HSGEKPFICKECGKAYGWCSENIR", "note": "[L22N]", "protein stability index": 1.81},
      {"variant": "HSGEKPFICKECGKAYGWCSEPIR", "note": "[L22P]", "protein stability index": 3.26},
      {"variant": "HSGEKPFICKECGKAYGWCSEQIR", "note": "[L22Q]", "protein stability index": 1.65},
      {"variant": "HSGEKPFICKECGKAYGWCSERIR", "note": "[L22R]", "protein stability index": 2.08},
      {"variant": "HSGEKPFICKECGKAYGWCSESIR", "note": "[L22S]", "protein stability index": 1.92},
      {"variant": "HSGEKPFICKECGKAYGWCSETIR", "note": "[L22T]", "protein stability index": 1.72},
      {"variant": "HSGEKPFICKECGKAYGWCSEVIR", "note": "[L22V]", "protein stability index": 2.09},
      {"variant": "HSGEKPFICKECGKAYGWCSEWIR", "note": "[L22W]", "protein stability index": 1.67},
      {"variant": "HSGEKPFICKECGKAYGWCSEYIR", "note": "[L22Y]", "protein stability index": 2.18},
      {"variant": "HSGEKPFICKECGKAYGWCSELAR", "note": "[I23A]", "protein stability index": 2.04},
      {"variant": "HSGEKPFICKECGKAYGWCSELCR", "note": "[I23C]", "protein stability index": 3.64},
      {"variant": "HSGEKPFICKECGKAYGWCSELDR", "note": "[I23D]", "protein stability index": 2.5},
      {"variant": "HSGEKPFICKECGKAYGWCSELER", "note": "[I23E]", "protein stability index": 2.24},
      {"variant": "HSGEKPFICKECGKAYGWCSELFR", "note": "[I23F]", "protein stability index": 1.98},
      {"variant": "HSGEKPFICKECGKAYGWCSELGR", "note": "[I23G]", "protein stability index": 2.09},
      {"variant": "HSGEKPFICKECGKAYGWCSELHR", "note": "[I23H]", "protein stability index": 2.71},
      {"variant": "HSGEKPFICKECGKAYGWCSELKR", "note": "[I23K]", "protein stability index": 2.45},
      {"variant": "HSGEKPFICKECGKAYGWCSELLR", "note": "[I23L]", "protein stability index": 2.31},
      {"variant": "HSGEKPFICKECGKAYGWCSELMR", "note": "[I23M]", "protein stability index": 1.97},
      {"variant": "HSGEKPFICKECGKAYGWCSELNR", "note": "[I23N]", "protein stability index": 1.97},
      {"variant": "HSGEKPFICKECGKAYGWCSELPR", "note": "[I23P]", "protein stability index": 2.28},
      {"variant": "HSGEKPFICKECGKAYGWCSELQR", "note": "[I23Q]", "protein stability index": 2.58},
      {"variant": "HSGEKPFICKECGKAYGWCSELRR", "note": "[I23R]", "protein stability index": 2},
      {"variant": "HSGEKPFICKECGKAYGWCSELSR", "note": "[I23S]", "protein stability index": 1.78},
      {"variant": "HSGEKPFICKECGKAYGWCSELTR", "note": "[I23T]", "protein stability index": 1.89},
      {"variant": "HSGEKPFICKECGKAYGWCSELVR", "note": "[I23V]", "protein stability index": 1.97},
      {"variant": "HSGEKPFICKECGKAYGWCSELWR", "note": "[I23W]", "protein stability index": 2.3},
      {"variant": "HSGEKPFICKECGKAYGWCSELYR", "note": "[I23Y]", "protein stability index": 1.82},
      {"variant": "HSGEKPFICKECGKAYGWCSELIA", "note": "[R24A]", "protein stability index": 1.86},
      {"variant": "HSGEKPFICKECGKAYGWCSELIC", "note": "[R24C]", "protein stability index": 4.05},
      {"variant": "HSGEKPFICKECGKAYGWCSELID", "note": "[R24D]", "protein stability index": 2.85},
      {"variant": "HSGEKPFICKECGKAYGWCSELIE", "note": "[R24E]", "protein stability index": 2.33},
      {"variant": "HSGEKPFICKECGKAYGWCSELIF", "note": "[R24F]", "protein stability index": 2.23},
      {"variant": "HSGEKPFICKECGKAYGWCSELIG", "note": "[R24G]", "protein stability index": 1.45},
      {"variant": "HSGEKPFICKECGKAYGWCSELIH", "note": "[R24H]", "protein stability index": 3.51},
      {"variant": "HSGEKPFICKECGKAYGWCSELII", "note": "[R24I]", "protein stability index": 1.99},
      {"variant": "HSGEKPFICKECGKAYGWCSELIK", "note": "[R24K]", "protein stability index": 2.08},
      {"variant": "HSGEKPFICKECGKAYGWCSELIL", "note": "[R24L]", "protein stability index": 1.71},
      {"variant": "HSGEKPFICKECGKAYGWCSELIM", "note": "[R24M]", "protein stability index": 1.74},
      {"variant": "HSGEKPFICKECGKAYGWCSELIN", "note": "[R24N]", "protein stability index": 2.03}
    ]}
  ]
}
